Laboratory results as given in US20090300780A1 (AbbVie / Abbott, published 2009).

Target: T1, murine NGF purified from submandibular glands (murine, UniProt P01139 122-239, limits assumed)
T1 construct: Native protein purified from tissue; also called NGF neurotrophin
Assay: ELISA, murine NGF coated at 10 ug/ml, COS supernatants with IgG1, detection by anti-human Cgamma, OD450
Procedure: For immobilization on plastic, 96 well Maxi sorb plates were incubated at 4° C. overnight with a solution containing the respective ligands of the two antibodies (the purified recombinant immunoadhesin TrkA Camel and the murine NGF purified from submandibular glands) at a concentration of 10 μg/ml in 0.1M pH 9.6 sodium carbonate buffer.
After one hour of blocking with PBS containing 3% milk (MPBS) at ambient temperature, concentrated supernatants were incubated with serial dilutions (1:2, 1.20; 1:200) and in parallel also with the supernatant of non transfected COS cells (negative control).

T1 sequence (P01139 122-239 limits assumed): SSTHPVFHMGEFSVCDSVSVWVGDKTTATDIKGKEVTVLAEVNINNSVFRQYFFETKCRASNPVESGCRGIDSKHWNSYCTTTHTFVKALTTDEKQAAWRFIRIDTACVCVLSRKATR

B1: alpha D11 humanized antibody (Hum alpha D11), IgG1 form (antibody, V domains shown)
VH: EVQLVESGGGLVQPGGSLRLSCAASGFSLTNNNVNWVRQAPGKGLEWVGGVWAGGATDYNSALKSRFTISRDNSKNTAYLQMNSLRAEDTAVYYCARDGGYSSSTLYAMDAWGQGTLVTVSS
VL: DIQMTQSPSSLSASVGDRVTITCRASEDIYNALAWYQQKPGKAPKLLIYNTDTLHTGVPSRFSGSGSGTDYTLTISSLQPEDFATYFCQHYFHYPRTFGQGTKVEIK
notes: also called Hum αD11; Hum alpha D11 VH / Hum alpha D11Vk
- binding result: binds
